Laboratory results: article PMC11321651, “Regulation of Glandular Size and Phytoalexin Biosynthesis by a Negative Feedback Loop in Cotton”

T1: JAVL (JAVL_A) (UniProt A0A1U8LLK1 1-170)
T1 sequence: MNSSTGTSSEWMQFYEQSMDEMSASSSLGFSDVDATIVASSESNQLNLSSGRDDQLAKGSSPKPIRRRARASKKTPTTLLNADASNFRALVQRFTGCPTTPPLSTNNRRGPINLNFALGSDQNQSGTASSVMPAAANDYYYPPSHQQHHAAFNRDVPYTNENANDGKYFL


Molecular target: T1, JAVL (JAVL_A)
Assay: EMSA; EMSA: 30 °C for 30 min, then 5% native PAGE in Tris/borate/EDTA, 10 V/cm, 4 °C; 10x and 100x cold competitor; binding buffer, salt and pH not stated
Conditions: protein: recombinant; tags: His (pET32a); label: Cy5; blunt (duplex implied, only one strand printed)

Binder | binding result
GoPGF promoter G-box probe (dsDNA) DNA 1: AACAGGAGATTTCCACGTGATAATGATGTCAA DNA 2: TTGACATCATTATCACGTGGAAATCTCCTGTT | binds
AOS promoter G-box probe (dsDNA) DNA 1: TTATGGCTGTAAAAACGTGCGAATTCATGGAG DNA 2: CTCCATGAATTCGCACGTTTTTACAGCCATAA | binds
